How the values were obtained:
Assay in all cases: flow cytometry on cells
[1] = biological target: surface-expressed H3 HA from A/Hong Kong/1/1968, uncleaved precursor (HA0) (Influenza A virus (strain A/Hong …, UniProt Q91MA7))
[2] = biological target: surface-expressed H3 HA from A/Hong Kong/1/1968, cleaved (HA) (Influenza A virus (strain A/Hong …, UniProt Q91MA7))
[3] = biological target: surface-expressed H3 HA from A/Hong Kong/24/1985, cleaved (HA) (Influenza A virus A/Hong Kong/24/1985 …, UniProt Q38TK5, strain)
[4] = biological target: surface-expressed H7 HA, uncleaved (HA0) (Influenza A virus H7, strain not named; …, UniProt Q6VMK1)
[5] = biological target: surface-expressed H7 HA, cleaved (HA) (Influenza A virus H7, strain not named; …, UniProt Q6VMK1)

Measured: binding result

B1: human monoclonal antibody CR8020 (antibody, V domains shown)
VH: QVQLQQSGAEVKTPGASVKVSCKASGYTFTSFGVSWIRQAPGQGLEWIGWISAYNGDTYYAQKFQARVTMTTDTSTTTAYMEMRSLRSDDTAVYYCAREPPLFYSSWSLDNWGQGTLVTVSS
VL: EIVMTQSPGTLSLSPGERATLSCRASQSVSMNYLAWFQQKPGQAPRLLIYGASRRATGIPDRISGSGSGTDFTLTISRLEPADFAVYYCQQYGTSPRTFGQGAKVEIK
binds: all assays above

Source: publication PMC3210727 (Science (New York, N.Y.), 2011)
